Assay results as given in the supplement of paper PMC10065799, “High-throughput profiling of sequence recognition by tyrosine kinases and SH2 domains using bacterial peptide display” (eLife, 2023).

Tests used:
AncSZ = test: phosphorylation enrichment, bacterial display (enrichment ratio); higher = better substrate or ligand; peptides without Tyr show the background
EPHB1 = EPHB1 (UniProt P54762); test: as above
EPHB2 = EPHB2 (UniProt P29323); test: as above
FGFR1 = FGFR1 (UniProt P11362); test: as above
FGFR3 = FGFR3 (UniProt P22607); test: as above
Fer (mouse) = test: as above
Fes = Fes (UniProt P07332); test: as above
Fyn = Fyn (UniProt P06241); test: as above
Hck = Hck (UniProt P08631); test: as above
Jak2 = Jak2 (UniProt O60674); test: as above
MERTK = MERTK (UniProt Q12866); test: as above
c-Abl (mouse) = test: as above
c-Src = test: as above
Grb2 SH2 = Grb2 SH2 (UniProt P62993); test: SH2 binding enrichment of the phosphorylated peptide, bacterial display (enrichment ratio); higher = better substrate or ligand; peptides without Tyr show the background
SHP2-C SH2 = test: as above
c-Src SH2 = test: as above
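Wherever SH2 binding enrichment of the phosphorylated peptide, bacterial display is given: peptide library displayed on the E. coli surface as eCPX fusions, selected cells deep-sequenced, score is each peptide's frequency after selection divided by its frequency in the input.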
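Wherever phosphorylation enrichment, bacterial display is given: 11-residue human phosphosite peptides and single-mutation variants displayed on the E. coli surface, counted by deep sequencing, each peptide's frequency after selection divided by its frequency in the unselected input library; frequency after pTyr selection over input frequency; kinase dosed for 20-30% of maximal phosphorylation in three min.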

Sequence of FGFR3 (P22607 whole entry, looked up): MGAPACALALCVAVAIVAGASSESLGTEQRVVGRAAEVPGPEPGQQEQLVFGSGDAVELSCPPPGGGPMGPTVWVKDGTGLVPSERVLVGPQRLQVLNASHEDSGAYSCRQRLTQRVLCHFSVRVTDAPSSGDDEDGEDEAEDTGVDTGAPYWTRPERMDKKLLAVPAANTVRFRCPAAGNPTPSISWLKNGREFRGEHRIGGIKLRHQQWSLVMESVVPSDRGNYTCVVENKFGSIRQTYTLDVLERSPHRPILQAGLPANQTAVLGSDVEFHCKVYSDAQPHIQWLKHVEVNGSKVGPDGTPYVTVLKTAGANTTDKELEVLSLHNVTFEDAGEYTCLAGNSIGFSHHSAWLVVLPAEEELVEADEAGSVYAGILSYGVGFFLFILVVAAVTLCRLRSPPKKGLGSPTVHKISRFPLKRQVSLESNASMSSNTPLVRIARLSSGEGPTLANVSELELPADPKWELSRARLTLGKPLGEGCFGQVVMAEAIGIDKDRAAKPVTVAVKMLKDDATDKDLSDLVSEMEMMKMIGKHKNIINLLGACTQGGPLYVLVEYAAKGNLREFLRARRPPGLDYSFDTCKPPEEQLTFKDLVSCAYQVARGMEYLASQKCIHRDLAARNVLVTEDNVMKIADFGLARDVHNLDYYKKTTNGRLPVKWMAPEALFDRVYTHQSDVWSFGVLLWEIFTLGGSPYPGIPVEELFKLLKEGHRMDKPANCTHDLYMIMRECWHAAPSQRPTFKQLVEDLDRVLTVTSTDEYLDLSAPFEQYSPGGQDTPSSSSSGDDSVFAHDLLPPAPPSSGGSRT
Sequence of Jak2 (O60674 whole entry, looked up): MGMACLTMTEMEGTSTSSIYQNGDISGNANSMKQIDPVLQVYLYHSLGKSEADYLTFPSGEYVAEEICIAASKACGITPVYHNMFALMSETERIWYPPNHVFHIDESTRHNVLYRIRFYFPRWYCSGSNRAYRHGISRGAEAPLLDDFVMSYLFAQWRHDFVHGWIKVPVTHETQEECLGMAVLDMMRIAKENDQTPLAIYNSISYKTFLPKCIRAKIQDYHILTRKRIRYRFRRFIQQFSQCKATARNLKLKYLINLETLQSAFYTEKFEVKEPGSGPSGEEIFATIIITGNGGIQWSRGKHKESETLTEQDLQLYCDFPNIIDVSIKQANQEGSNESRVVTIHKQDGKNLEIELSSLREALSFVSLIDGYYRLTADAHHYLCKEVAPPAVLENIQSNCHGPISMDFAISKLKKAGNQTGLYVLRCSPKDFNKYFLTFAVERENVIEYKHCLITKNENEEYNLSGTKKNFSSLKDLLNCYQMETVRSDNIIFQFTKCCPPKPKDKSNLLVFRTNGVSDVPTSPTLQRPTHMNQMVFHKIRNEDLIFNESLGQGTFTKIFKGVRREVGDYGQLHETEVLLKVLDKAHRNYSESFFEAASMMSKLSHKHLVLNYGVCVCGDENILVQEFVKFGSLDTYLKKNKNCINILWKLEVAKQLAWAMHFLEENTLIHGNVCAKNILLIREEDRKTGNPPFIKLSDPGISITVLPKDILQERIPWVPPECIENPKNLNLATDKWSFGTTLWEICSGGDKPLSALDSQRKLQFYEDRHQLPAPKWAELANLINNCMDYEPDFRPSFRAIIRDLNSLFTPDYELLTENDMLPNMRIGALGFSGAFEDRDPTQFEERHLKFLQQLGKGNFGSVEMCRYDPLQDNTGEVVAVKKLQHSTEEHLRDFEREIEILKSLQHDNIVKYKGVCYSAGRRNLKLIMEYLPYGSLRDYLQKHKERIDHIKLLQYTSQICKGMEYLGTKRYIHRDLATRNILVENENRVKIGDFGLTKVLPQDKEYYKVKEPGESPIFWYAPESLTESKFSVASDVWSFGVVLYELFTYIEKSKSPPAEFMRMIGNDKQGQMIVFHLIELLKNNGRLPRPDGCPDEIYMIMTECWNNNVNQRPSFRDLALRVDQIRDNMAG
Sequence of EPHB2 (P29323 whole entry, looked up): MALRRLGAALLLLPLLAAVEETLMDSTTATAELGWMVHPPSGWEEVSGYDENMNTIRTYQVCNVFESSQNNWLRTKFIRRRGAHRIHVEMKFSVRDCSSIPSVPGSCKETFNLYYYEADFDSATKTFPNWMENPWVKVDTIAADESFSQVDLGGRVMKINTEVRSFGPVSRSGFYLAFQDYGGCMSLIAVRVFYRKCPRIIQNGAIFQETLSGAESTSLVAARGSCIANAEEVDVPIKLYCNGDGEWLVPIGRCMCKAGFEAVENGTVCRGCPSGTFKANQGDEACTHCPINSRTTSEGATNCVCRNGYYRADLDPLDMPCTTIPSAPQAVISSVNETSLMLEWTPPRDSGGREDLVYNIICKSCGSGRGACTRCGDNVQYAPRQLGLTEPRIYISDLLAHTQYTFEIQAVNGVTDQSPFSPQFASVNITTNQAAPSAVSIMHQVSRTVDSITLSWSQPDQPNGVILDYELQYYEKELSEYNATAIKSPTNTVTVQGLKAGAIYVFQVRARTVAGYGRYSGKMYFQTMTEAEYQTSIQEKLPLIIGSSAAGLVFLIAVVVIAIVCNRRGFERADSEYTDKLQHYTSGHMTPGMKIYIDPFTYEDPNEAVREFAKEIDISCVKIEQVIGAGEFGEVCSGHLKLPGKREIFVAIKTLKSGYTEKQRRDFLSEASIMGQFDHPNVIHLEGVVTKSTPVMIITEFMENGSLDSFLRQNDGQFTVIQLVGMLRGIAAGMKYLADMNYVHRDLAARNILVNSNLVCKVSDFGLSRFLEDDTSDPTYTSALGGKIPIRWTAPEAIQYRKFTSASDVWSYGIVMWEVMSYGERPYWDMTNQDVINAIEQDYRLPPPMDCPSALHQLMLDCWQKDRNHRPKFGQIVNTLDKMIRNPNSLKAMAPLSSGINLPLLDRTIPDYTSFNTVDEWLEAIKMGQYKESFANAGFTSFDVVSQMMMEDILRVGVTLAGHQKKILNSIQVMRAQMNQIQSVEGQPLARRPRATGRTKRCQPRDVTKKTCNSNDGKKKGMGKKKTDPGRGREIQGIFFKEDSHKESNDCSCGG
Sequence of Fyn (P06241 whole entry, looked up): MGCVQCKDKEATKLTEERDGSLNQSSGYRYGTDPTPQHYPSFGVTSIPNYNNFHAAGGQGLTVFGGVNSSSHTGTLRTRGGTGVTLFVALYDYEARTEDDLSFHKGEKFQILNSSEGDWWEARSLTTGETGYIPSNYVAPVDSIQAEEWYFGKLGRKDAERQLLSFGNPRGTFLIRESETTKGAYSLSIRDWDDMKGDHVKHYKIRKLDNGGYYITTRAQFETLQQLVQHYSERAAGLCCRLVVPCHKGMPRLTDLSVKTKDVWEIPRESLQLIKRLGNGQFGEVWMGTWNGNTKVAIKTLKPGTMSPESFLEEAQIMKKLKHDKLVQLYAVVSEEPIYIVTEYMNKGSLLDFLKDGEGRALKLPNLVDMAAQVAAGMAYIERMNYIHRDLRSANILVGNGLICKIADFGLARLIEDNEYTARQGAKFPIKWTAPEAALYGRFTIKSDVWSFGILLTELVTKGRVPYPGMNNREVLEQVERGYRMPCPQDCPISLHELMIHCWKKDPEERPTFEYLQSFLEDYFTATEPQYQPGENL
Sequence of MERTK (Q12866 whole entry, looked up): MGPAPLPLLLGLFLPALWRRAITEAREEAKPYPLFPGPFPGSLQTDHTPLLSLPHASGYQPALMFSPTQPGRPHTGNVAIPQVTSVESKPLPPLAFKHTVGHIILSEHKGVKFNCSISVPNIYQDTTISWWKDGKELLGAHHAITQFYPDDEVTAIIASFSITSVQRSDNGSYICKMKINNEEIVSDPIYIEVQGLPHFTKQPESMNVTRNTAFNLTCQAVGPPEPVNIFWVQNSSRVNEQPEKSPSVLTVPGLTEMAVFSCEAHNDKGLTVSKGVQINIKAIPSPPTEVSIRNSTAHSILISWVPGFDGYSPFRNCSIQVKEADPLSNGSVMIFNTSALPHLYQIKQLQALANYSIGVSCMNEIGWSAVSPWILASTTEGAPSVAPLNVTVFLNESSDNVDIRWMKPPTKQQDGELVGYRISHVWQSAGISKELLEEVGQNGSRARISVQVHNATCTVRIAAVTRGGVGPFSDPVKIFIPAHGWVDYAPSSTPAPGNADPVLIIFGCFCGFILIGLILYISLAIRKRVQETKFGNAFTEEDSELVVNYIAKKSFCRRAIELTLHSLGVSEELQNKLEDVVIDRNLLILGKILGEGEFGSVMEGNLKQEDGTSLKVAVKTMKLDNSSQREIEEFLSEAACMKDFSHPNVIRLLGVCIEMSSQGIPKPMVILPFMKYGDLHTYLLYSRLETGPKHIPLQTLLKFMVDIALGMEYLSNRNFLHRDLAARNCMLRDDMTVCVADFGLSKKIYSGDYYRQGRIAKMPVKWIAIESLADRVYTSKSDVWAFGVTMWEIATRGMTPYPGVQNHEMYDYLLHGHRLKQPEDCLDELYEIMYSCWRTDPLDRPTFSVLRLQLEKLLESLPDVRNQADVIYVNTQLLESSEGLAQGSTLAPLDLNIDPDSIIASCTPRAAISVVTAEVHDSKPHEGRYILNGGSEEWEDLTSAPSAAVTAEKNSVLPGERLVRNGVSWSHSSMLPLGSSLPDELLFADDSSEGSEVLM
Sequence of Grb2 SH2 (P62993 whole entry, looked up): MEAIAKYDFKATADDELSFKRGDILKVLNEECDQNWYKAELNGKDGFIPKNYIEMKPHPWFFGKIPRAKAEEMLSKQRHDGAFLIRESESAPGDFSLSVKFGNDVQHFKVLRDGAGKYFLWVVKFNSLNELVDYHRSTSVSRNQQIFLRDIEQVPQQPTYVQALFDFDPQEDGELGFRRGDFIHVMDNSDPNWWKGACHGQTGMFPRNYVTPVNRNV

Row | Sequence | phosphorylation enrichment (AncSZ) | phosphorylation enrichment (EPHB1) | phosphorylation enrichment (EPHB2) | phosphorylation enrichment (FGFR1) | phosphorylation enrichment (FGFR3) | phosphorylation enrichment (Fer (mouse)) | phosphorylation enrichment (Fes) | phosphorylation enrichment (Fyn) | phosphorylation enrichment (Hck) | phosphorylation enrichment (Jak2) | phosphorylation enrichment (MERTK) | phosphorylation enrichment (c-Abl (mouse)) | phosphorylation enrichment (c-Src) | SH2 binding enrichment (Grb2 SH2) | SH2 binding enrichment (SHP2-C SH2) | SH2 binding enrichment (c-Src SH2)
1 | ELAVNYQEQAS [SLC9A9_Y591_I589V] | 0.96 | 0.563 | 0.694 | 0.605 | 0.883 | 0.519 | 1.06 | 0.534 | 0.559 | 0.829 | 0.435 | 0.66 | 0.496 | 0.964 | 0.678 | 0.563
2 | VTRDEYPSNPM [CEMIP2_Y1015_I1010V] | 0.6 | 0.411 | 0.417 | 0.323 | 0.491 | 0.339 | 0.751 | 0.356 | 0.397 | 0.696 | 0.487 | 0.523 | 0.394 | 0.67 | 0.783 | 0.564
3 | SVVVSYEPPEV [TP53_Y220_P219S] | 1.23 | 0.519 | 0.579 | 0.475 | 0.594 | 0.515 | 0.918 | 0.587 | 0.632 | 0.808 | 0.434 | 0.749 | 0.432 | 0.82 | 0.914 | 0.707
4 | LAGRYYALRSM [CKB_Y174_K177R] | 0.807 | 0.701 | 0.688 | 0.751 | 0.763 | 0.5 | 0.79 | 0.524 | 0.708 | 1.66 | 3.63 | 0.684 | 0.581 | 1.38 | 2.86 | 1.73
5 | EEKKKYFDTKI [CASP5_Y103_YF] | 0.928 | 0.429 | 0.445 | 0.447 | 0.519 | 0.457 | 0.954 | 0.374 | 0.559 | 0.665 | 0.332 | 0.657 | 0.402 | 0.821 | 0.698 | 0.462
6 | EPVSDYINADI [PTPN11_Y304_N308D] | 1.5 | 0.695 | 0.689 | 0.77 | 0.908 | 0.614 | 1.33 | 0.581 | 0.637 | 1.12 | 0.492 | 9 | 0.514 | 0.761 | 0.437 | 0.464
7 | LMVFEYMRHGD [NTRK1_Y591] | 0.845 | 0.646 | 0.847 | 0.5 | 0.756 | 0.614 | 1.08 | 0.604 | 0.931 | 1 | 0.426 | 0.457 | 0.34 | 1.67 | 1.99 | 1.23
8 | VRVQLYDPDFM [CYP4A22_Y100_Y104F] | 1.06 | 0.717 | 0.631 | 0.45 | 0.683 | 0.579 | 1.17 | 0.419 | 0.561 | 1.07 | 1.08 | 0.734 | 0.579 | 0.972 | 0.67 | 0.536
9 | HLNLTYRILSF [MMP23B_Y95_F91L] | 1.43 | 0.673 | 0.664 | 0.645 | 1.27 | 0.605 | 1.68 | 0.694 | 0.54 | 1.51 | 0.42 | 1.08 | 0.491 | 1.03 | 0.624 | 0.474
10 | FRVAGYKTQGG [TIA1_Y383_E384K_YF] | 0.533 | 0.379 | 0.468 | 0.417 | 0.468 | 0.273 | 0.624 | 0.668 | 0.401 | 0.558 | 0.436 | 0.686 | 0.342 | 0.825 | 0.678 | 0.489
11 | FETDFYQKGGK [INSR_Y1190_R1191Q_YF] | 0.633 | 0.834 | 0.355 | 0.411 | 0.503 | 0.47 | 0.88 | 0.519 | 0.472 | 0.526 | 0.421 | 0.523 | 0.427 | 0.797 | 0.62 | 0.564
12 | SISLRYEGRVY [ABL1_Y167] | 1.07 | 0.606 | 0.563 | 0.484 | 0.776 | 0.546 | 1.09 | 0.513 | 0.506 | 1.06 | 0.428 | 0.803 | 0.394 | 1.11 | 0.881 | 0.685
13 | VPLLEYFWDIF [CDAN1_Y712_R714W_YF] | 1.02 | 0.455 | 0.469 | 3.61 | 2.73 | 0.439 | 1.16 | 0.449 | 0.432 | 1.12 | 0.413 | 0.666 | 0.411 | 1.8 | 2.12 | 1.68
14 | RFLRGYRQDAY [HLA-A_Y137] | 1.15 | 0.43 | 0.432 | 0.677 | 0.664 | 0.483 | 0.827 | 0.647 | 0.764 | 0.927 | 1.2 | 0.922 | 1.14 | 1.1 | 0.556 | 0.628
15 | RRVEPYGENFN [APOA4_Y310] | 1.23 | 0.521 | 0.385 | 0.421 | 0.655 | 0.542 | 1.2 | 0.487 | 0.45 | 0.965 | 0.561 | 0.707 | 0.643 | 0.687 | 0.588 | 0.513
16 | ASGKYYAMKIL [AKT3_Y174] | 0.664 | 0.313 | 0.407 | 0.74 | 0.623 | 0.434 | 0.657 | 0.446 | 0.434 | 0.662 | 0.591 | 0.582 | 0.396 | 0.957 | 0.941 | 1.43
17 | CTTIDYNYMCN [TP53_Y234_H233D] | 1.3 | 0.715 | 0.643 | 0.957 | 0.831 | 0.464 | 0.93 | 0.558 | 0.598 | 0.838 | 0.449 | 0.682 | 0.488 | 0.768 | 1 | 1.34

Row | Sequence | phosphorylation enrichment (AncSZ) | phosphorylation enrichment (EPHB1) | phosphorylation enrichment (EPHB2) | phosphorylation enrichment (FGFR1) | phosphorylation enrichment (FGFR3) | phosphorylation enrichment (Fer (mouse)) | phosphorylation enrichment (Fes) | phosphorylation enrichment (Fyn) | phosphorylation enrichment (Hck) | phosphorylation enrichment (Jak2) | phosphorylation enrichment (MERTK) | phosphorylation enrichment (c-Abl (mouse)) | phosphorylation enrichment (c-Src) | SH2 binding enrichment (Grb2 SH2) | SH2 binding enrichment (SHP2-C SH2) | SH2 binding enrichment (c-Src SH2)
18 | MDYRSYPREYG [RBM10_Y44] | 0.621 | 0.337 | 0.402 | 0.404 | 0.684 | 0.331 | 0.626 | 0.366 | 0.41 | 0.515 | 0.296 | 0.472 | 0.319 | 0.752 | 0.591 | 0.476
19 | IMNLLYHVVGW [GBA_Y412_T408M] | 0.963 | 4.93 | 2.71 | 6.14 | 5.38 | 2.16 | 0.872 | 4.49 | 6.31 | 2.43 | 7.65 | 2.74 | 5.2 | 1.61 | 1.66 | 1.41
20 | FYLGAYDRFLP [SLC22A5_Y486_V481F] | 1.37 | 0.938 | 2.06 | 0.712 | 0.831 | 1.22 | 1.28 | 2.4 | 3.38 | 1.11 | 4.1 | 0.829 | 3.62 | 1.18 | 1.37 | 1.16
21 | QEGPEYWDQET [HLA-A_Y83] | 1.82 | 0.809 | 0.533 | 0.816 | 1.16 | 0.546 | 1.79 | 0.739 | 0.73 | 1.94 | 0.66 | 0.907 | 0.825 | 0.819 | 0.354 | 0.588
22 | PSQRRNVYYYS [PTEN_Y174_Y174N] | 0.567 | 0.397 | 0.657 | 1.36 | 1.41 | 0.568 | 0.838 | 0.837 | 0.74 | 0.916 | 4.42 | 0.47 | 0.9 | 0.923 | 0.828 | 1.25
23 | FKNGDYSEVMK [LCT_Y1638_N1639S] | 0.697 | 0.859 | 0.877 | 0.57 | 0.468 | 0.362 | 0.709 | 0.42 | 0.413 | 0.686 | 0.433 | 0.429 | 0.574 | 1.11 | 0.739 | 1.84
24 | YTGDIYSNSNL [LZTR1_Y141] | 0.954 | 1.19 | 1.53 | 0.626 | 0.616 | 3.56 | 0.707 | 7.46 | 7.87 | 0.524 | 2.36 | 0.911 | 4.63 | 0.648 | 0.545 | 0.479
25 | SNKLTYGTMVF [ACOX1_Y275] | 0.773 | 0.505 | 0.604 | 0.459 | 0.573 | 0.631 | 1.02 | 5.28 | 2.9 | 0.863 | 0.495 | 0.836 | 4.65 | 0.925 | 1.05 | 0.504
26 | STSKTYVISRT [RBBP6_Y87] | 0.628 | 0.387 | 0.426 | 0.503 | 0.498 | 0.396 | 0.497 | 0.416 | 0.465 | 0.527 | 0.417 | 0.423 | 0.444 | 0.74 | 0.758 | 0.476
27 | VKGGAYNPVTV [MCCC2_Y145_Y146N] | 0.552 | 0.471 | 0.372 | 0.447 | 0.469 | 0.526 | 0.644 | 0.456 | 0.434 | 0.781 | 0.471 | 0.609 | 0.511 | 0.814 | 0.558 | 0.466
28 | ESDYTYSSSYE [SRPK2_Y427] | 2.42 | 1.3 | 1.45 | 1.12 | 1.06 | 0.68 | 1.15 | 1.11 | 0.86 | 0.852 | 0.486 | 0.725 | 1.43 | 0.829 | 0.734 | 1.15
29 | KVGNEYVNKGQ [MYH7_Y410_T412N] | 0.581 | 0.337 | 0.553 | 0.492 | 0.391 | 0.404 | 0.541 | 0.412 | 0.327 | 0.424 | 0.373 | 0.422 | 0.428 | 2.24 | 0.706 | 0.444
30 | FLNSIYKCRDE [ROS1_Y2227_S2229C] | 0.953 | 0.463 | 0.514 | 0.579 | 0.662 | 0.477 | 0.909 | 0.488 | 0.572 | 1.24 | 0.311 | 0.78 | 0.774 | 0.895 | 0.667 | 0.518
31 | TRHDEYLEVTK [MAP1A_Y2217] | 0.882 | 0.464 | 0.547 | 0.589 | 1.11 | 0.421 | 1.03 | 0.565 | 0.399 | 0.726 | 0.343 | 0.612 | 0.401 | 1.15 | 0.598 | 0.506
32 | SLMNQYVNKEF [RAB7A_Y28_K32E] | 0.58 | 0.392 | 0.554 | 0.373 | 0.568 | 0.385 | 0.66 | 0.461 | 0.469 | 0.442 | 0.383 | 0.482 | 0.459 | 2.46 | 0.949 | 0.578
33 | ERDFTYDELLN [EIF2S2_Y176_E177D_YF] | 1.53 | 0.616 | 0.598 | 0.58 | 0.815 | 0.638 | 1.33 | 0.667 | 0.994 | 1.46 | 0.537 | 0.894 | 0.796 | 1.07 | 0.789 | 1.2
